Reference: patent US20180030151A1 (MOGAM INSTITUTE FOR BIOMEDICAL RESEARCH, published 2018)
Read-outs that look alike come from different tables or passages of the source.

What was measured:
Test in all cases: cell-based or functional assay
[1] = molecular target: T1, recombinant human TFPI (tissue factor pathway inhibitor) (human, UniProt P10646 29-304)
[2] = molecular target: T1, recombinant human TFPI (tissue factor …); remark: listed apart in the source
[3] = molecular target: T1, recombinant human TFPI (tissue factor …); remark: listed apart in the source
[4] = molecular target: T1, recombinant human TFPI (tissue factor …); remark: listed apart in the source
[5] = molecular target: T1, recombinant human TFPI (tissue factor …); remark: listed apart in the source
[6] = molecular target: T1, recombinant human TFPI (tissue factor …); remark: listed apart in the source
[7] = molecular target: T1, recombinant human TFPI (tissue factor …); remark: listed apart in the source
[8] = molecular target: T1, recombinant human TFPI (tissue factor …); remark: listed apart in the source
[9] = molecular target: T1, recombinant human TFPI (tissue factor …); remark: listed apart in the source
[10] = molecular target: T1, recombinant human TFPI (tissue factor …); remark: listed apart in the source
[11] = molecular target: T1, recombinant human TFPI (tissue factor …); remark: listed apart in the source
[12] = molecular target: T1, recombinant human TFPI (tissue factor …); remark: listed apart in the source

B1: clone 1015 (antibody, V domains shown)
VH: EVQLVESGGGLVKPGGSLRLSCAASGFTFSSYAMNWVRQAPGKGLEWVSTITTGGSHTYYADSVEGRFTISRDNAKNSLYLQMNSLRAEDTAVYYCARQDGNFLMDYWGQGTLVTVSS
VL: DVVMTQTPLSLPVTLGQPASISCKSSQSLLDIDGKTYLNWLQQRPGQSPKRLIYLVSKLDSGVPDRFTGSGSGTDFTLKISRVEAEDVGVYYCWQGTHFPFTFGQGTKVEIKR
[1]
  A405, TF/FVIIa/FX complex assay, Ab 1.56 nM: 0.141
  A405, TF/FVIIa/FX complex assay, Ab 3.13 nM: 0.148
  A405, TF/FVIIa/FX complex assay, Ab 6.25 nM: 0.158
  A405, TF/FVIIa/FX complex assay, Ab 12.5 nM: 0.179
  A405, TF/FVIIa/FX complex assay, Ab 25 nM: 0.269
  A405, TF/FVIIa/FX complex assay, Ab 50 nM: 0.919
  A405, TF/FVIIa/FX complex assay, Ab 100 nM: 0.944
[2]
  effect of inhibiting TFPI, FXa activity assay, Ab 10 nM: ~71%
  effect of inhibiting TFPI, FXa activity assay, Ab 20 nM: ~83%
[3]
  % of Normalized, TF/FVIIa/FX complex assay, Ab 1.56 nM: 15.4%
  % of Normalized, TF/FVIIa/FX complex assay, Ab 3.13 nM: 16.1%
  % of Normalized, TF/FVIIa/FX complex assay, Ab 6.25 nM: 17.2%
  % of Normalized, TF/FVIIa/FX complex assay, Ab 12.5 nM: 19.4%
  % of Normalized, TF/FVIIa/FX complex assay, Ab 25 nM: 29.3%
  % of Normalized, TF/FVIIa/FX complex assay, Ab 50 nM: 100%
  % of Normalized, TF/FVIIa/FX complex assay, Ab 100 nM: 103%
[4]
  FXa assay % of FXa alone, 2.5 nM Ab, 10 nM TFPI: 6.5%
  FXa assay % of FXa alone, 5 nM Ab, 10 nM TFPI: 14%
  FXa assay OD, 2.5 nM Ab, 10 nM TFPI: 0.0465
  FXa assay OD, 5 nM Ab, 10 nM TFPI: 0.101
  FXa assay OD, 10 nM Ab, 10 nM TFPI: 0.512
  FXa assay OD, 20 nM Ab, 10 nM TFPI: 0.594

B2: clone 1123 (antibody, V domains shown)
VH: EVQLVESGGGLVKPGGSLRLSCAASGFTFSSYAMNWVRQAPGKGLEWVSTITTGGSHTYYADSVEGRFTISRDNAKNSLYLQMNSLRAEDTAVYYCARQDGHFLMDYWGQGTLVTVSS
VL: DVVMTQTPLSLPVTLGQPASISCKSSQSLLDIDGKTYLNWLQQRPGQSPKRLIYLVSKLDSGVPDRFTGSGSGTDFTLKISRVEAEDVGVYYCWQGTHFPFTFGQGTKVEIKR
[5]
  A405, TF/FVIIa/FX complex assay, Ab 1.56 nM: 0.14
  A405, TF/FVIIa/FX complex assay, Ab 3.13 nM: 0.151
  A405, TF/FVIIa/FX complex assay, Ab 6.25 nM: 0.15
  A405, TF/FVIIa/FX complex assay, Ab 12.5 nM: 0.157
  A405, TF/FVIIa/FX complex assay, Ab 25 nM: 0.272
  A405, TF/FVIIa/FX complex assay, Ab 50 nM: 0.77
  A405, TF/FVIIa/FX complex assay, Ab 100 nM: 0.905
[2]
  effect of inhibiting TFPI, FXa activity assay, Ab 10 nM: ~69%
  effect of inhibiting TFPI, FXa activity assay, Ab 20 nM: ~88%
[6]
  % of Normalized, TF/FVIIa/FX complex assay, Ab 1.56 nM: 14.7%
  % of Normalized, TF/FVIIa/FX complex assay, Ab 3.13 nM: 15.8%
  % of Normalized, TF/FVIIa/FX complex assay, Ab 6.25 nM: 15.7%
  % of Normalized, TF/FVIIa/FX complex assay, Ab 12.5 nM: 16.4%
  % of Normalized, TF/FVIIa/FX complex assay, Ab 25 nM: 28.5%
  % of Normalized, TF/FVIIa/FX complex assay, Ab 50 nM: 80.7%
  % of Normalized, TF/FVIIa/FX complex assay, Ab 100 nM: 94.8%
[7]
  FXa assay % of FXa alone, 2.5 nM Ab, 10 nM TFPI: 6.5%
  FXa assay % of FXa alone, 5 nM Ab, 10 nM TFPI: 14.7%
  FXa assay OD, 2.5 nM Ab, 10 nM TFPI: 0.0315
  FXa assay OD, 5 nM Ab, 10 nM TFPI: 0.071
  FXa assay OD, 10 nM Ab, 10 nM TFPI: 0.332
  FXa assay OD, 20 nM Ab, 10 nM TFPI: 0.424

B3: clone A63 (antibody, V domains shown)
VH: EVQLVESGGGLVKPGGSLRLSCAASGFTFSSYAMNWVRQAPGKGLEWVSTITTGGSYTYYADSVQGRFTISRDNAKNSLYLQMNSLRAEDTAVYYCARQDGNFLMDYWGQGTLVTVSS
VL: DVVMTQTPLSLPVTLGQPASISCKSSQSLLDVDGKTYLNWLQQRPGQSPKRLIYLVSKLDSGVPDRFTGSGSGTDFTLKISRVEAEDVGVYYCWQGTHFPFTFGQGTKVEIKR
[8]
  FXa assay % of FXa alone, 2.5 nM Ab, 10 nM TFPI: 4.8%
  FXa assay % of FXa alone, 5 nM Ab, 10 nM TFPI: 5.3%
  FXa assay % of FXa alone, 10 nM Ab, 10 nM TFPI: 4.5%
  FXa assay % of FXa alone, 20 nM Ab, 10 nM TFPI: 5.6%

B4: clone 3203 (antibody, V domains shown)
VH: EVQLVESGGGLVKPGGSLRLSCAASGFTFSSYAMSWVRQAPGKGLEWVSTITTGGSYTYYADSVEGRFTISRDNAKNSLYLQMNSLRAEDTAVYYCARQDGNFLMDYWGQGTLVTVSS
VL: DVVMTQTPLSLPVTLGQPASISCKSSQSLLDLDGKTYLNWLQQRPGQSPKRLIYLVSKLDSGVPDRFTGSGSGTDFTLKISRVEAEDVGVYYCWQGTHFPFTFGQGTKVEIKR
[9]
  A405, TF/FVIIa/FX complex assay, Ab 1.56 nM: 0.147
  A405, TF/FVIIa/FX complex assay, Ab 3.13 nM: 0.162
  A405, TF/FVIIa/FX complex assay, Ab 6.25 nM: 0.173
  A405, TF/FVIIa/FX complex assay, Ab 12.5 nM: 0.208
  A405, TF/FVIIa/FX complex assay, Ab 25 nM: 0.424
  A405, TF/FVIIa/FX complex assay, Ab 50 nM: 0.934
  A405, TF/FVIIa/FX complex assay, Ab 100 nM: 0.932
[10]
  % of Normalized, TF/FVIIa/FX complex assay, Ab 1.56 nM: 16.1%
  % of Normalized, TF/FVIIa/FX complex assay, Ab 3.13 nM: 17.7%
  % of Normalized, TF/FVIIa/FX complex assay, Ab 6.25 nM: 18.9%
  % of Normalized, TF/FVIIa/FX complex assay, Ab 12.5 nM: 22.7%
  % of Normalized, TF/FVIIa/FX complex assay, Ab 25 nM: 46.3%
  % of Normalized, TF/FVIIa/FX complex assay, Ab 50 nM: 102%
  % of Normalized, TF/FVIIa/FX complex assay, Ab 100 nM: 102%
[11]
  FXa assay % of FXa alone, 2.5 nM Ab, 10 nM TFPI: 6.2%
  FXa assay % of FXa alone, 5 nM Ab, 10 nM TFPI: 13.5%
  FXa assay % of FXa alone, 10 nM Ab, 10 nM TFPI: 48.5%
  FXa assay % of FXa alone, 20 nM Ab, 10 nM TFPI: 68%
  FXa assay OD, 2.5 nM Ab, 10 nM TFPI: 0.0505
  FXa assay OD, 5 nM Ab, 10 nM TFPI: 0.11
  FXa assay OD, 10 nM Ab, 10 nM TFPI: 0.394
  FXa assay OD, 20 nM Ab, 10 nM TFPI: 0.552

B5: clone 4017 (antibody, V domains shown)
VH: EVQLVESGGGLVKPGGSLRLSCAASGFTFSSYAMNWVRQAPGKGLEWVGTITTGGSYTYYADSVQGRFTISRDNAKNSLYLQMNSLRAEDTAVYYCARQDGYFLMDYWGQGTLVTVSS
VL: DVVMTQTPLSLPVTLGQPASISCKSSQSLLDIDGKTYLNWLQQRPGQSPKRLIYLVSKLDSGVPDRFTGSGSGTDFTLKISRVEAEDVGVYYCWQGTHFPFTFGQGTKVEIKR
[1]
  A405, TF/FVIIa/FX complex assay, Ab 1.56 nM: 0.134
  A405, TF/FVIIa/FX complex assay, Ab 3.13 nM: 0.138
  A405, TF/FVIIa/FX complex assay, Ab 6.25 nM: 0.15
  A405, TF/FVIIa/FX complex assay, Ab 12.5 nM: 0.181
  A405, TF/FVIIa/FX complex assay, Ab 25 nM: 0.307
  A405, TF/FVIIa/FX complex assay, Ab 50 nM: 0.919
  A405, TF/FVIIa/FX complex assay, Ab 100 nM: 0.943
[12]
  FXa assay % of FXa alone, 2.5 nM Ab, 10 nM TFPI: 6%
  FXa assay % of FXa alone, 5 nM Ab, 10 nM TFPI: 10.6%
  FXa assay OD, 2.5 nM Ab, 10 nM TFPI: 0.046
  FXa assay OD, 5 nM Ab, 10 nM TFPI: 0.0815
  FXa assay OD, 10 nM Ab, 10 nM TFPI: 0.54
  FXa assay OD, 20 nM Ab, 10 nM TFPI: 0.696
[2]
  effect of inhibiting TFPI, FXa activity assay, Ab 10 nM: ~70%
  effect of inhibiting TFPI, FXa activity assay, Ab 20 nM: ~90%
[3]
  % of Normalized, TF/FVIIa/FX complex assay, Ab 1.56 nM: 14.5%
  % of Normalized, TF/FVIIa/FX complex assay, Ab 3.13 nM: 15%
  % of Normalized, TF/FVIIa/FX complex assay, Ab 6.25 nM: 16.3%
  % of Normalized, TF/FVIIa/FX complex assay, Ab 12.5 nM: 19.7%
  % of Normalized, TF/FVIIa/FX complex assay, Ab 25 nM: 33.4%
  % of Normalized, TF/FVIIa/FX complex assay, Ab 50 nM: 100%
  % of Normalized, TF/FVIIa/FX complex assay, Ab 100 nM: 103%
